# PMC4357505
# How the values were obtained:
# β-arrestin2 = β-arrestin2 (UniProt P32121); assay: GST pull-down from cell lysate; settings: reference: YFP-GCN2 wild type; sites T899
# β-arrestin1 = β-arrestin1 (UniProt P49407); assay: GST pull-down from cell lysate; settings: reference: YFP-GCN2 wild type; sites T899
substance,measurement,setting,value
GCN2 1-1649 (from UniProt Q9P2K8) YFP-GCN2 T899A,binding against the reference,β-arrestin2,stronger
same,binding against the reference,β-arrestin1,stronger
